Source: patent publication US10562947B2, “Compositions and methods for preventing or treating diseases, conditions or processes characterized by aberrant fibroblast proliferation and extracellular matrix deposition” (MOERAE MATRIX, INC., priority 2011, dated 2020)

Columns and labels:
Assay in all cases: Kinase Profiling Assay
Type in all cases: biochemical
Details in all cases: 100 μM peptide
[1] = target: ALK(h) (Homo sapiens, UniProt Q9UM73)
In short: (§1)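 Off-target screen of MK2 peptide inhibitors, 266 human kinases, n = 2 per activity measurement.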

[2] = target: T1, ALK4(h) (Homo sapiens, UniProt P36896)
T1 sequence (P36896 24-505): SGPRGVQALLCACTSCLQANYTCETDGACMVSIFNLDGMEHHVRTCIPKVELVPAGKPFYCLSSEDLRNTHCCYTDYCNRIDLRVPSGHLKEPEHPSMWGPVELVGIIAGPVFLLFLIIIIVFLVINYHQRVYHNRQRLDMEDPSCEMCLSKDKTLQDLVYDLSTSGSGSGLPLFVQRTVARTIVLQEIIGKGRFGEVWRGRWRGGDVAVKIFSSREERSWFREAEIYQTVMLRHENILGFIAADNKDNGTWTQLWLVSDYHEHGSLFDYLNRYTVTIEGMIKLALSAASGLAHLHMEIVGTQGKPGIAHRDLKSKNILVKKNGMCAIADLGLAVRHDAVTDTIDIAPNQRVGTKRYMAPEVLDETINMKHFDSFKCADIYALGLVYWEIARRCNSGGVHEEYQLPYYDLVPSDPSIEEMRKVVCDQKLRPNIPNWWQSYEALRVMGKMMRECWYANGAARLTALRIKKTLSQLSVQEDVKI
In short: as §1

[3] = target: CaMKIIγ(h) (Homo sapiens, UniProt Q13555)
Chain of CaMKIIγ(h) (Q13555 whole entry): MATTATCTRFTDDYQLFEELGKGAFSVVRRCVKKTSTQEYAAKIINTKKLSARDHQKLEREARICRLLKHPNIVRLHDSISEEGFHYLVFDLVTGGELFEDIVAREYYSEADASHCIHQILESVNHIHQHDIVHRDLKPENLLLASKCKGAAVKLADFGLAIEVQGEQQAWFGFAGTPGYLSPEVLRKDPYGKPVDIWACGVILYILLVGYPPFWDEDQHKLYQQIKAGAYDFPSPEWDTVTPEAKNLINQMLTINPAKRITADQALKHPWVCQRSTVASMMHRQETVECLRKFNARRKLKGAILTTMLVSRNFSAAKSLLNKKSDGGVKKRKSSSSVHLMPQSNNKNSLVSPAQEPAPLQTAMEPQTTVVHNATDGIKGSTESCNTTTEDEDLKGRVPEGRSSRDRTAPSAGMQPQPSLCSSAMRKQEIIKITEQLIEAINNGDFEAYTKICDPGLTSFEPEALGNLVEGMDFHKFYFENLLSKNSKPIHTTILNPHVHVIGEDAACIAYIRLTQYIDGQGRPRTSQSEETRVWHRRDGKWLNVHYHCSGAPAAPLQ
In short: as §1

[4] = target: DAPK1(h) (Homo sapiens, UniProt P53355)
In short: as §1

[5] = target: T2, EphA1(h) (Homo sapiens, UniProt P21709)
T2 sequence (P21709 26-976): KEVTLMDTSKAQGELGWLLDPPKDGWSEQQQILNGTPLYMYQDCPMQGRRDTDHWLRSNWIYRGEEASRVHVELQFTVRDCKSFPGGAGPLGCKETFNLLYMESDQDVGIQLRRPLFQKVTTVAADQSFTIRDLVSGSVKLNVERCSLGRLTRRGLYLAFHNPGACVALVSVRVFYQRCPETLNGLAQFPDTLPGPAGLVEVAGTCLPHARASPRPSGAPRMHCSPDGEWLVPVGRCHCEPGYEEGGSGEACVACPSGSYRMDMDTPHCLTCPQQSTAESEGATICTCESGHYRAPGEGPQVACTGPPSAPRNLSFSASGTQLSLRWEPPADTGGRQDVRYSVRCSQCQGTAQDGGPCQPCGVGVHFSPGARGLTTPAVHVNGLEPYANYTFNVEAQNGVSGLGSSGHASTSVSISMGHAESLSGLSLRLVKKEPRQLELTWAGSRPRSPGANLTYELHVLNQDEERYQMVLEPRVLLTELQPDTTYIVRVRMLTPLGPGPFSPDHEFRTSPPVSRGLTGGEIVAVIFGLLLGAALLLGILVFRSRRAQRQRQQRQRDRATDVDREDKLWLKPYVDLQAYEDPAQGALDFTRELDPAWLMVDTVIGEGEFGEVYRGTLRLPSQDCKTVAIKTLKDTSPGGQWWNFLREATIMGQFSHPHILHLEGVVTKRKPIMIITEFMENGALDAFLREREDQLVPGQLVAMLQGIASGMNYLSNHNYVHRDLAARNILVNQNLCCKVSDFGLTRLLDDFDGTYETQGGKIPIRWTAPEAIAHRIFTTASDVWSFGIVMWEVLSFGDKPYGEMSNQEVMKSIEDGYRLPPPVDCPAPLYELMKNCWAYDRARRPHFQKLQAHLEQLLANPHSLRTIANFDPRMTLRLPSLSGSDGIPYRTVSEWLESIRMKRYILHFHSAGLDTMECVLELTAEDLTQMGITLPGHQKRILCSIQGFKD
In short: as §1

[6] = target: Fms(h) (Homo sapiens, UniProt P07333)
In short: as §1

[7] = target: T3, HIPK1(h) (Homo sapiens, UniProt Q86Z02)
T3 construct: purchased Millipore
T3 sequence (Q86Z02 whole entry): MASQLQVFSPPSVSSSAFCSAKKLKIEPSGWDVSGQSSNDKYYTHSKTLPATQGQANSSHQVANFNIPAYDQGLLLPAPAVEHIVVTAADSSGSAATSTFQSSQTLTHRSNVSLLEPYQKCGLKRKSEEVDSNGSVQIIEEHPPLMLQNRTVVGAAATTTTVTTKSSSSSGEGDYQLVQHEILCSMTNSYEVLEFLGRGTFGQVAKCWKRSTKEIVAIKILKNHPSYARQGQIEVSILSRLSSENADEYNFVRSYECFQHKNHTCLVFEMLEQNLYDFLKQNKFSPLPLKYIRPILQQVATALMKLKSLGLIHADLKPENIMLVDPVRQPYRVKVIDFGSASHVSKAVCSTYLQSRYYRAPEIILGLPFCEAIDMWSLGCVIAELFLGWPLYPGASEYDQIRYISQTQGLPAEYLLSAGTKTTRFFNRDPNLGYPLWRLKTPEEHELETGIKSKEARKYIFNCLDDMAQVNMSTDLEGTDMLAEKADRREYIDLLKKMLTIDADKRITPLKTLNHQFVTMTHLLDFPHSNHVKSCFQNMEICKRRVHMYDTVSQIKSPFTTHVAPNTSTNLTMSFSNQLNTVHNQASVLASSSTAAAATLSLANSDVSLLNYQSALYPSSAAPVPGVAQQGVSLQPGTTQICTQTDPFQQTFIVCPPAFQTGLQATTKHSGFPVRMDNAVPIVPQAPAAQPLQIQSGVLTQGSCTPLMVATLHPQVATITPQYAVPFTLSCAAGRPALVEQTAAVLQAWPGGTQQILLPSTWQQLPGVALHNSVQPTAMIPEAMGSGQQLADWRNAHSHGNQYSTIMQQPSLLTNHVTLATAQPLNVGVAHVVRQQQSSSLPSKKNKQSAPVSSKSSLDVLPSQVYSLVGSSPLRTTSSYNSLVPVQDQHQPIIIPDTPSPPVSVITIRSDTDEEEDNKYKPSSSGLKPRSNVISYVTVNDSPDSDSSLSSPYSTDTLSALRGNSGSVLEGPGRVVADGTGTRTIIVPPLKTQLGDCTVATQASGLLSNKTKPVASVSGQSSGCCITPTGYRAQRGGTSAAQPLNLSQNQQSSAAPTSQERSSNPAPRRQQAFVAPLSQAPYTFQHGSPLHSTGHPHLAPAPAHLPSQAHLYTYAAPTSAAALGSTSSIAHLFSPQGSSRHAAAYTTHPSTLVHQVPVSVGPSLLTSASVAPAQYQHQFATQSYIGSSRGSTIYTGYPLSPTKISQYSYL
In short: as §1

[8] = target: T4, IKKβ(h) (Homo sapiens, UniProt O14920)
T4 construct: purchased Millipore
T4 sequence (O14920 1-756): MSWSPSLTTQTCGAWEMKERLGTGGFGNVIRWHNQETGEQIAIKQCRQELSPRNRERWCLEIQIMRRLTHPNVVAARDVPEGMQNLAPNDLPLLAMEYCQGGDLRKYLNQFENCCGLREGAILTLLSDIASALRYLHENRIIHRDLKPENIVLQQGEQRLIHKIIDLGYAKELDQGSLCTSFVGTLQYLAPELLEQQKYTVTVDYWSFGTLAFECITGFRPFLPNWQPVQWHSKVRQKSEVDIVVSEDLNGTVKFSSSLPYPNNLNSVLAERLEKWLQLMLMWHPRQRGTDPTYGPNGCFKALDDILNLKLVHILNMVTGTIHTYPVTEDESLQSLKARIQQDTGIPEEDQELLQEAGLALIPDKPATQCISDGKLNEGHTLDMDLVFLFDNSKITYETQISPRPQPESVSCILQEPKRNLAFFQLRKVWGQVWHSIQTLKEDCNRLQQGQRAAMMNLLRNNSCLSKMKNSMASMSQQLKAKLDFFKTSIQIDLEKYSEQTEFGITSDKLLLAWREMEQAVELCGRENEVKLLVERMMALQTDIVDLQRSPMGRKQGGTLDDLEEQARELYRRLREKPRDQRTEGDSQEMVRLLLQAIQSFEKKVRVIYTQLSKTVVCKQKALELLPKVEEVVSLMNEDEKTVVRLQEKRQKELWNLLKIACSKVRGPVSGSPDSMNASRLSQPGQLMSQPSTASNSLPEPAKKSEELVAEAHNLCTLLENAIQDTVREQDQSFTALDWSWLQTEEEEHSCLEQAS
In short: as §1

[9] = target: JNK3(h) (Homo sapiens, UniProt P53779)
Chain of JNK3(h) (P53779 whole entry): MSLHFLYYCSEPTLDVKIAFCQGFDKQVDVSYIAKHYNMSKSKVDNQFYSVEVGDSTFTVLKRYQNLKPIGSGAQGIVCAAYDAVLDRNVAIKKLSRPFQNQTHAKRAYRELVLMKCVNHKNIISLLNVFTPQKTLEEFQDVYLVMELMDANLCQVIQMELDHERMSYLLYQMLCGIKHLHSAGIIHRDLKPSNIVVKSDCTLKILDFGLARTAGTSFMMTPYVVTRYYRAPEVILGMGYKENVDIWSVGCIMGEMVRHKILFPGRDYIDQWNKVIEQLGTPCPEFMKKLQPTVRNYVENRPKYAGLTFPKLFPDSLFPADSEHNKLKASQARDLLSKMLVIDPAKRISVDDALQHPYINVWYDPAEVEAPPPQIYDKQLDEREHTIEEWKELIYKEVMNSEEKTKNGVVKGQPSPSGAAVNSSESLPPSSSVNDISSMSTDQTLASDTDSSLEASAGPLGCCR
In short: as §1

[10] = target: PDGFRα(h) (Homo sapiens, UniProt P16234)
Chain of PDGFRα(h) (P16234 24-1089): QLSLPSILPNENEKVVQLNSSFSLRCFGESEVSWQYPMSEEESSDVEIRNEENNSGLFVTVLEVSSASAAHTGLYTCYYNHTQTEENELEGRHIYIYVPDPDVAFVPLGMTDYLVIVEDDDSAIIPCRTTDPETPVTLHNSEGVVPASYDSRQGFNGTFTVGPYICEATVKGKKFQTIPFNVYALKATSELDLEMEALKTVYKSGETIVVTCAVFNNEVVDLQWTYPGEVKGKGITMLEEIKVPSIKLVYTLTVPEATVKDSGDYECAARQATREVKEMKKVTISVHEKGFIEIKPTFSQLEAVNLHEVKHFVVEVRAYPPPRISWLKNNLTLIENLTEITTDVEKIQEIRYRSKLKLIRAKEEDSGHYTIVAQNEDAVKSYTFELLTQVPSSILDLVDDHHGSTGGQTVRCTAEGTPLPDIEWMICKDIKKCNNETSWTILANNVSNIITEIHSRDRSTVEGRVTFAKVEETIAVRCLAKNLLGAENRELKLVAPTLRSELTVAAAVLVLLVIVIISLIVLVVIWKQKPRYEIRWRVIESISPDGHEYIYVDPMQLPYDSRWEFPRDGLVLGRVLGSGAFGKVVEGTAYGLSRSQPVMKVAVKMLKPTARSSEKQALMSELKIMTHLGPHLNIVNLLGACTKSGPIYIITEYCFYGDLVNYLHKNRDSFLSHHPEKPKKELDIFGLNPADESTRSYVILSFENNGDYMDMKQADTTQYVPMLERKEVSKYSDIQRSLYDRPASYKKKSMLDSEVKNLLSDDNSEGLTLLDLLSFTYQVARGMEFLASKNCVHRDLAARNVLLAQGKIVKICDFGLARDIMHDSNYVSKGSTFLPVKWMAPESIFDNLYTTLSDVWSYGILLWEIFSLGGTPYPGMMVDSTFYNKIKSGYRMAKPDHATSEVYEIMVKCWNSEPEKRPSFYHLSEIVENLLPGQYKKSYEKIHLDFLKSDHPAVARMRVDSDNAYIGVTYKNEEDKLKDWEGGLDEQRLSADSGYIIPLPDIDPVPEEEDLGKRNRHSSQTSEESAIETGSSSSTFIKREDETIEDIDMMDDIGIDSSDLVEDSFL
In short: as §1

Chain of ALK(h) (Q9UM73 19-1620): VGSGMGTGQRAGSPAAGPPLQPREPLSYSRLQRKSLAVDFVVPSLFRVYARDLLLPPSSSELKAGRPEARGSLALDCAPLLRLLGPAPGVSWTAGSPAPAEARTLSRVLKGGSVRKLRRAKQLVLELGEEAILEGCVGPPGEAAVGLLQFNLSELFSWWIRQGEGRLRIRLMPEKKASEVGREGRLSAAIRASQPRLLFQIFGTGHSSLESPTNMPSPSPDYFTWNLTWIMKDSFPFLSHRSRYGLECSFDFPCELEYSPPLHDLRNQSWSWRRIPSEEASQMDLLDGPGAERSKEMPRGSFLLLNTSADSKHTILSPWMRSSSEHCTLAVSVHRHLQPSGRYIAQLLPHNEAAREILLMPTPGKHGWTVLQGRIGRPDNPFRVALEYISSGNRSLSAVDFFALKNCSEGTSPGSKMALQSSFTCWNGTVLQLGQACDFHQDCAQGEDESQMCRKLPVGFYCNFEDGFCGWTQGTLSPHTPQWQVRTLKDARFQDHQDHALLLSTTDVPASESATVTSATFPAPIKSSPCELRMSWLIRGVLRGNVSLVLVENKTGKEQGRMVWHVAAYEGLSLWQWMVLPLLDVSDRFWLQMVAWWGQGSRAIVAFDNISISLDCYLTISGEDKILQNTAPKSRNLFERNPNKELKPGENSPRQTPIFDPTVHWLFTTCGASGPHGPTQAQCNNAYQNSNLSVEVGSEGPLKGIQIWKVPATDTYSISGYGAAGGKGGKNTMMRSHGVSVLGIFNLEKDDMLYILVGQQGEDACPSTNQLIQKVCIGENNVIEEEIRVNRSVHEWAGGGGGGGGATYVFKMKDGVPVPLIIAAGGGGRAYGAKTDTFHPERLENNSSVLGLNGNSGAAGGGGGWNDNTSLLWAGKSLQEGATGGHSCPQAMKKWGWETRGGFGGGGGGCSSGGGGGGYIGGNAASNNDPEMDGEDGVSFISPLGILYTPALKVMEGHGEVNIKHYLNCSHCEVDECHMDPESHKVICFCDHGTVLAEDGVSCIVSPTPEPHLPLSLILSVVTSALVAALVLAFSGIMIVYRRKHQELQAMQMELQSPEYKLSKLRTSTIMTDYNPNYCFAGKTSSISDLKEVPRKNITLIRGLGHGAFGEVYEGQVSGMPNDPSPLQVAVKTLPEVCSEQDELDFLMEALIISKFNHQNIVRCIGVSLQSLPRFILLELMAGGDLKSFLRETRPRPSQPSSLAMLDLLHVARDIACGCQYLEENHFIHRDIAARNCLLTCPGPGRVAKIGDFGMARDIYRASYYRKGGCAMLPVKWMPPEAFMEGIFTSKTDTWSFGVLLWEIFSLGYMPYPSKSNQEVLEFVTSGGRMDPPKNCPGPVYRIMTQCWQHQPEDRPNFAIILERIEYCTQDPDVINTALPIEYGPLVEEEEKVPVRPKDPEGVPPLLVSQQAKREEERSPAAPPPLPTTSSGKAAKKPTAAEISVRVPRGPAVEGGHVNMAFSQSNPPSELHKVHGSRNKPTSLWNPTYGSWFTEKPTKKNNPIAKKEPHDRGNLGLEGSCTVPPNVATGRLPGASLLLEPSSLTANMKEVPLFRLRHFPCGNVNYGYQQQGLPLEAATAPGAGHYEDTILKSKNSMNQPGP

## FAKLAARLYRKALARQLGVAA [MMI-0300]
[1]
  ALK(h) % activity: 19%
[2]
  ALK4(h) % activity: 140%
[3]
  CaMKIIγ(h) % activity: 5%
[4]
  DAPK1(h) % activity: 46%
[5]
  EphA1(h) % activity: 73%
[6]
  Fms(h) % activity: 45%
[7]
  HIPK1(h) % activity: 74%
[8]
  IKKβ(h) % activity: 84%
[9]
  JNK3(h) % activity: 89%
[10]
  PDGFRα(h) % activity: 65%

## KAFAKLAARLYRKALARQLGVAA [MMI-0400]
[1]
  ALK(h) % activity: 16%
[2]
  ALK4(h) % activity: 130%
[3]
  CaMKIIγ(h) % activity: 3%
[4]
  DAPK1(h) % activity: 36%
[5]
  EphA1(h) % activity: 61%
[6]
  Fms(h) % activity: 37%
[7]
  HIPK1(h) % activity: 91%
[8]
  IKKβ(h) % activity: 84%
[9]
  JNK3(h) % activity: 70%
[10]
  PDGFRα(h) % activity: 40%

## HRRIKAWLKKIKALARQLGVAA (Mammalian) [MMI-0500]
[1]
  ALK(h) % activity: 12%
[2]
  ALK4(h) % activity: 81%
[3]
  CaMKIIγ(h) % activity: 3%
[4]
  DAPK1(h) % activity: 0%
[5]
  EphA1(h) % activity: 40%
[6]
  Fms(h) % activity: 14%
[7]
  HIPK1(h) % activity: 47%
[8]
  IKKβ(h) % activity: 71%
[9]
  JNK3(h) % activity: 171%
[10]
  PDGFRα(h) % activity: 40%

## YARAAARQARAKALNRQLGVA (Mammalian) [MMI-0200]
[1]
  ALK(h) % activity: 95%
[2]
  ALK4(h) % activity: 152%
[3]
  CaMKIIγ(h) % activity: 94%
[6]
  Fms(h) % activity: 92%
[9]
  JNK3(h) % activity: 90%
[10]
  PDGFRα(h) % activity: 108%
